This experiment has as its target Strep-Flag-FAS I, recombinant 4'-phosphopantetheinylated M. tuberculosis fatty acid synthase I (M. tuberculosis). As to the kind of experiment: SEC; […] (100 mM potassium phosphate pH 7.2, 150 mM KCl, 1 mM TCEP, 1 mM EDTA); […]. Background: In gel filtration, larger molecules generally elute earlier.

Usually stoichiometry N stands for the number of molecules, sites or subunits per partner or assembly.

Take “Strep-Flag-FAS I, recombinant 4'-phosphopantetheinylated M. tuberculosis fatty acid synthase I (enzyme)”: the stoichiometry N came to 6.

Values taken from article PMC6152951.
